From patent US20260167714A1 (COHERUS BIOSCIENCES, published 2026)

B1: L156S3 (antibody, IgG2a, V domains shown)
VH: QVQLKQSGAELVRPGASVKLSCRASGYTFTDYYMNWVKQRPGQGLEWIARIYPGVYRTHYNEKFKDKATLTAEKSSSTAYMELSSLTSEDSAVYFCARSGYYGGTYEEDAMDYWGQGTSVTVSS
VL: DIQMTQSPASLSVSVGETVTITCRASENIYSNLAWYQQKQGKSPQLLVYAATSLADGVPSRFRGSGSGTQYSLKISSLQSEDFGNYYCQNFWDTPYTFGGGTKLEIK
notes: also called mouse anti-human ILT4 antibody L156S3
B2: 1E1 (antibody, V domains shown)
VH: QVQLQQWGAGLLKPSETLSLTCAVYGGSFSGYYWSWIRQPPGKGLEWIGEINHSGSTNYNPSLKSRVTISVDTSKNQFSLKLSSVTAADTAVYYCARLPTRWVTTRYFDLWGRGTLVTVSS
VL: QSVLTQPPSVSGAPGQRVTISCTGSSSNIGAGYDVHWYQQLPGTAPKLLIYGNSNRPSGVPDRFSVSKSGASASLAITGLQAEDEADYYCQSFDNSLSAYVFGGGTQLTVL
B3: J19h1 (antibody, V domains shown)
VH: QITLKESGPTLVKPTQTLTLTCTFSGFSLNTYAMGVSWIRQPPGKALEWLASIWWNGNKYNNPSLKSRLTVTKDTSKNQVVLTMTNMDPVDTATYYCAHSRIIRFTDYVMDAWGQGTLVTVSS
VL: DIQMTQSPSSLSTSVGDRVTITCRASEDIYNDLAWYQQKPGKAPKLLIYNANSLHTGVASRFSGSGSGTDFTFTISSLQPEDVATYFCQQYYDYPLTFGQGTKLEIKR

Tests used:
[1] = target: T1, recombinant human ILT4 (LILRB2) (human, UniProt Q8N423 22-460); test: SPR, Biacore T200, medium resolution; koff held at its limit of 4.27e-5 s^-1; koff held at the limit, 1200 s of dissociation
T1 construct: Bought protein (Acro Biosystems or R&D Systems); also called ILTR4
T1 sequence (Q8N423 other isoform, or with tags, fused parts or gaps limits assumed): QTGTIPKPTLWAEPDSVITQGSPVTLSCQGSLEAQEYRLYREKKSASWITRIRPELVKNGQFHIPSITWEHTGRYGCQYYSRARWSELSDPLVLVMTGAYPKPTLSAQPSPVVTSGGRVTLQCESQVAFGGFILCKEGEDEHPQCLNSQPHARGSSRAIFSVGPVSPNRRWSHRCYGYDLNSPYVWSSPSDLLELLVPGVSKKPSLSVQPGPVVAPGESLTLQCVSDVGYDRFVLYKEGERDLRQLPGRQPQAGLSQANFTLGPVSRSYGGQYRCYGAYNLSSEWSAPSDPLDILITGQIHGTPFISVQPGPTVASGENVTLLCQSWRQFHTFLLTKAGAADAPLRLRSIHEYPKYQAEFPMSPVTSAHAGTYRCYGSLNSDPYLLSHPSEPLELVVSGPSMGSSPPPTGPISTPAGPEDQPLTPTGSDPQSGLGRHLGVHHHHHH
Method: (§1) Label-free SPR analysis on a Biacore T200 instrument was utilized to measure antibody affinity to ILT4. CM4 sensor chips from Cytiva Inc. were utilized for all medium resolution analyses. Either anti-mouse Fc specific or anti-human Fc specific capture surfaces were prepared using standard amine coupling chemistry. Mouse, Chimera or Humanized mAbs were captured to their respective surfaces and ILT4 was injected across the surfaces from 101 nM to 0.79 nM in a 2-fold serial dilution series at a flow rate of 100 μL/min. The association phase was followed for 90 sec. while the dissociation phase was followed for 1200 sec. due to the medium resolution analysis implemented here. The sensorgrams were double-referenced and fit globally to a 1:1 interaction model with a term included for mass transport, and the equilibrium dissociation constant was calculated as KD=koff/kₒₙ. […] All kinetic experiments were performed at 25° C. in a buffer consisting of Hepes-buffered saline, pH 7.4, with 0.05% polysorbate 20 (HBS-P+) and 100 μg/ml Bovine Serum Albumin (BSA).

[2] = target: T2, human ILT4 expressed on cells (human, UniProt Q8N423 22-597); test: flow cytometry blocking assay: ILT4-expressing CHO cells preincubated with antibody, then PE-HLA-G; HLA-G binding MFI falls from about 105000 (no antibody) to near 0
T2 construct: whole, on cells; also called CHO-S/ILT4 cells; ILT4-CHO cells
T2 sequence (Q8N423 22-597): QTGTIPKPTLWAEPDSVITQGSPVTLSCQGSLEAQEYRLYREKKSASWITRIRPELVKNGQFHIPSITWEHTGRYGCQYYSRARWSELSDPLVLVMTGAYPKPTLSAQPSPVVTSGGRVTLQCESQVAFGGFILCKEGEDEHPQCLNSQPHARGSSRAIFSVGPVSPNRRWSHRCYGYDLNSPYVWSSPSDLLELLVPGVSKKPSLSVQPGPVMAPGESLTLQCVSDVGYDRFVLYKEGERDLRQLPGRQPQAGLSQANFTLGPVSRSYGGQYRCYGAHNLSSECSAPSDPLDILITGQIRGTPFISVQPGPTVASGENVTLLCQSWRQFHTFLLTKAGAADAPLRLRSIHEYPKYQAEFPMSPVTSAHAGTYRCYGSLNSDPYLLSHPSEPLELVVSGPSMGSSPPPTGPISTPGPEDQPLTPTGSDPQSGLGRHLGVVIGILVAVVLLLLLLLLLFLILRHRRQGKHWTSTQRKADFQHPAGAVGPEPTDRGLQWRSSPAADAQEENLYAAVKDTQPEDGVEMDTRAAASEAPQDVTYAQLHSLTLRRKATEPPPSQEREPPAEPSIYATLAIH
Method: (§2) In the second blocking experiment, the primary antibody dilutions were made by diluting antibody to 15 μg/ml in FACS buffer. Three independent sets of eleven 2.5-fold serial dilutions were then made in FACS buffer from 15 μg/ml to 0.002 μg/ml. Each dilution set was handled independently, and 50 μl from each was added to cells in duplicate. Control wells received FACS buffer with no antibody. Wells were mixed and incubated for 30 minutes at 4 degrees C. Cells were washed twice in FACS buffer.
(§3) In both blocking experiments, phycoerythrin (PE)-conjugated HLA-G tetramer was diluted in FACS buffer to 5 μg/ml and 100 μl per well was added to cells. Cells were incubated at 4 degrees C. for 30 minutes, washed twice in FACS buffer, and resuspended in 250 μl FACS buffer with 0.1 μg/ml propidium iodide.
(§4) Cells were acquired on an Attune flow cytometer, with 5000 propidium iodide-negative cells collected per sample, and MFI was recorded. Relative blocking activity was calculated with the following formula: 100−(Sample MFI−Background MFI)/(Top MFI−Background MFI)*100. Prism software (Graphpad) was used to plot MFI and relative blocking activity for each sample. The blocking potency for each antibody, represented as IC₅₀, was calculated with Prism software.

[3] = target: T2, human ILT4 expressed on cells; test: flow cytometry, blockade of PE-HLA-G tetramer (5 µg/ml) binding to CHO-S/ILT4 cells, experiment 2
Method: as §2, §3, §4

[4] = target: T2, human ILT4 expressed on cells; test: cell-based or functional assay
[5] = target: T1, recombinant human ILT4 (LILRB2); test: SPR, Biacore T200, mAb captured on anti-Fc, ILT4 injected, medium resolution, 25 C
Method: as §1

[6] = target: T1, recombinant human ILT4 (LILRB2); test: SPR, Biacore T200, medium resolution; koff held at its limit of 4.27e-5 s^-1
Method: as §1

[7] = target: T2, human ILT4 expressed on cells; test: flow cytometry, blockade of PE-HLA-G tetramer binding to ILT4-CHO cells, Experiment 3
[8] = target: T2, human ILT4 expressed on cells; test: flow cytometry, blockade of PE-HLA-G tetramer binding to ILT4-CHO cells, Experiment 1
[9] = target: T2, human ILT4 expressed on cells; test: cell-based or functional assay; remark: listed apart in the source
[10] = target: T2, human ILT4 expressed on cells; test: cell-based or functional assay; remark: listed apart in the source
[11] = target: T2, human ILT4 expressed on cells; test: flow cytometry, blockade of PE-HLA-G tetramer (5 µg/ml) binding to CHO-S/ILT4 cells, experiment 1
[12] = target: T2, human ILT4 expressed on cells; test: flow cytometry, blockade of PE-HLA-A tetramer (5 ug/ml) binding to ILT4-CHO cells, Experiment 1 (table title prints HLA-G)
[13] = target: T2, human ILT4 expressed on cells; test: flow cytometry on ILT4-CHO cells, unlabelled mAb titrated; competitor AF647-Hz45.01-LALA
Method: (§5) Competition binding assays were performed. […] Binding activities were measured by flow cytometry.
Anti-human ILT4 mAbs at various concentrations (0-15 μg/ml) were incubated with ILT4-CHO cells. Cells were washed and stained with AF647-Hz45.01-LALA. Cells were analyzed by flow cytometry.

[14] = target: T1, recombinant human ILT4 (LILRB2); test: SPR, high resolution kinetics, triplicate; 95% CI in parentheses
[15] = target: T1, recombinant human ILT4 (LILRB2); test: SPR, high resolution kinetics, triplicate
[16] = target: T2, human ILT4 expressed on cells; test: flow cytometry on ILT4-CHO cells, unlabelled mAb titrated; competitor AF647-Hz156.03-LALA
Method: as §5
Anti-human ILT4 mAbs at various concentrations (0-15 μg/ml) were incubated with ILT4-CHO cells. Cells were washed and stained with AF647-Hz156.03-LALA. Cells were analyzed by flow cytometry.

[17] = target: T2, human ILT4 expressed on cells; test: flow cytometry, blockade of PE-HLA-A tetramer (5 ug/ml) binding to ILT4-CHO cells, Experiment 2 (table title prints HLA-G)
[18] = target: T2, human ILT4 expressed on cells; test: flow cytometry, blockade of PE-HLA-G tetramer binding to ILT4-CHO cells, Experiment 2
[19] = target: T2, human ILT4 expressed on cells; test: flow cytometry, blockade of PE-HLA-A tetramer (5 ug/ml) binding to ILT4-CHO cells, Experiment 3 (table title prints HLA-G)
[20] = target: T2, human ILT4 expressed on cells; test: flow cytometry, blockade of PE-HLA-G tetramer (5 µg/ml) binding to CHO-S/ILT4 cells, experiment 1; remark: listed apart in the source

Binder | IC50 [2] [µg/mL] | IC50 [3] [µg/mL] | fold decrease of PE-HLA-G MFI [11] [fold] | IC50 [13] [µg/mL] | kon [14] [M⁻¹ s⁻¹] | Kd [15] [nM] | koff [15] [s⁻¹] | IC50 [16] [µg/mL] | IC50 [20] [µg/mL] | other results
B1 | 0.088 | 0.113 |  |  |  |  |  |  |  | koff [1]: ≤ 4.27e-05 s⁻¹; IL-6 secretion by LPS-stimulated M2 macrophages (MSD), fold over control [4]: 2 fold; kon [5]: 269000 M⁻¹ s⁻¹; Kd [6]: ≤ 0.16 nM
B2 | 0.096 | 0.075 | ≤ 30 | 0.171 | 1.62e+06 | 5.5 | 0.00895 | 0.336 | 0.13 | IC50 [7]: 0.151 µg/mL; IC50 [8]: 0.194 µg/mL; EC50 value of IL-6 production, donor 4 [9]: 0.00374 µg/mL; EC50 value of IL-6 production, donor 5 [9]: 0.0139 µg/mL; EC50 value of TNFa production, donor 4 [10]: 0.00877 µg/mL; EC50 value of TNFa production, donor 5 [10]: 0.0235 µg/mL; IC50 [12]: 0.102 µg/mL; IC50 [17]: 0.107 µg/mL; IC50 [18]: 0.162 µg/mL; IC50 [19]: 0.0956 µg/mL
B3 | 0.233 | 0.216 | ≤ 22 | 0.182 | 5.11e+06 | 0.85 | 0.00433 | 0.0796 | 0.13 | IL-6 secretion, fold over control, Donor A [4]: 3 fold; IL-6 secretion, fold over control, Donor B [4]: 2 fold; TNF-α secretion, fold over negative control [4]: 8 fold
